Measured values taken from publication PMC10403546 (2023).

Target: X18 gp120
Assay: SPR

B1: bNAb F6 Fab (for SPR) (Fab, V domains shown)
VH: QVQLQQWGTGLLKPSETLSLTCAVYGVSLRGYYWTWIRQSPKKGLEWIGEIDEIGRTKYSQSLRSRATLSIDTSKKQFSLRLTSVTAADMATYYCARWRLMMVDEVTRHGMDVWSQGTMVTVSS
VL: DIVMTQSPLSLSVAPGEAASISCRSTQSLLNRNGDNYLEWYLRRPGRSPQLLIYLGSERALGVPDRFSGSGSGRDFTLKISRVEAQDVGTYYCLQTRQGAFTFGQGTKLEIK
**Q.** Which Kd does the source give for B1 here?
**A.** 32.5 nM
